# Results published in IntAct's records for PubMed 28698298.
# B1: GRB10-interacting GYF protein 2 (Homo sapiens), Q6Y7W6 (parent)
# chain: MAAETQTLNFGPEWLRALSSGGSITSPPLSPALPKYKLADYRYGREEMLALFLKDNKIPSDLLDKEFLPILQEEPLPPLALVPFTEEEQRNFSMSVNSAAVLRLTGRGGGGTVVGAPRGRSSSRGRGRGRGECGFYQRSFDEVEGVFGRGGGREMHRSQSWEERGDRRFEKPGRKDVGRPNFEEGGPTSVGRKHEFIRSESENWRIFREEQNGEDEDGGWRLAGSRRDGERWRPHSPDGPRSAGWREHMERRRRFEFDFRDRDDERGYRRVRSGSGSIDDDRDSLPEWCLEDAEEEMGTFDSSGAFLSLKKVQKEPIPEEQEMDFRPVDEGEECSDSEGSHNEEAKEPDKTNKKEGEKTDRVGVEASEETPQTSSSSARPGTPSDHQSQEASQFERKDEPKTEQTEKAEEETRMENSLPAKVPSRGDEMVADVQQPLSQIPSDTASPLLILPPPVPNPSPTLRPVETPVVGAPGMGSVSTEPDDEEGLKHLEQQAEKMVAYLQDSALDDERLASKLQEHRAKGVSIPLMHEAMQKWYYKDPQGEIQGPFNNQEMAEWFQAGYFTMSLLVKRACDESFQPLGDIMKMWGRVPFSPGPAPPPHMGELDQERLTRQQELTALYQMQHLQYQQFLIQQQYAQVLAQQQKAALSSQQQQQLALLLQQFQTLKMRISDQNIIPSVTRSVSVPDTGSIWELQPTASQPTVWEGGSVWDLPLDTTTPGPALEQLQQLEKAKAAKLEQERREAEMRAKREEEERKRQEELRRQQEEILRRQQEEERKRREEEELARRKQEEALRRQREQEIALRRQREEEERQQQEEALRRLEERRREEEERRKQEELLRKQEEEAAKWAREEEEAQRRLEENRLRMEEEAARLRHEEEERKRKELEVQRQKELMRQRQQQQEALRRLQQQQQQQQLAQMKLPSSSTWGQQSNTTACQSQATLSLAEIQKLEEERERQLREEQRRQQRELMKALQQQQQQQQQKLSGWGNVSKPSGTTKSLLEIQQEEARQMQKQQQQQQQHQQPNRARNNTHSNLHTSIGNSVWGSINTGPPNQWASDLVSSIWSNADTKNSNMGFWDDAVKEVGPRNSTNKNKNNASLSKSVGVSNRQNKKVEEEEKLLKLFQGVNKAQDGFTQWCEQMLHALNTANNLDVPTFVSFLKEVESPYEVHDYIRAYLGDTSEAKEFAKQFLERRAKQKANQQRQQQQLPQQQQQQPPQQPPQQPQQQDSVWGMNHSTLHSVFQTNQSNNQQSNFEAVQSGKKKKKQKMVRADPSLLGFSVNASSERLNMGEIETLDDY
# B2: Eukaryotic translation initiation factor 4E type 2 (Homo sapiens), O60573-1 (parent)
# chain: MNNKFDALKDDDSGDHDQNEENSTQKDGEKEKTERDKNQSSSKRKAVVPGPAEHPLQYNYTFWYSRRTPGRPTSSQSYEQNIKQIGTFASVEQFWRFYSHMVRPGDLTGHSDFHLFKEGIKPMWEDDANKNGGKWIIRLRKGLASRCWENLILAMLGEQFMVGEEICGAVVSVRFQEDIISIWNKTASDQATTARIRDTLRRVLNLPPNTIMEYKTHTDSIKMPGRLGPQRLLFQNLWKPRLNVP
# partner: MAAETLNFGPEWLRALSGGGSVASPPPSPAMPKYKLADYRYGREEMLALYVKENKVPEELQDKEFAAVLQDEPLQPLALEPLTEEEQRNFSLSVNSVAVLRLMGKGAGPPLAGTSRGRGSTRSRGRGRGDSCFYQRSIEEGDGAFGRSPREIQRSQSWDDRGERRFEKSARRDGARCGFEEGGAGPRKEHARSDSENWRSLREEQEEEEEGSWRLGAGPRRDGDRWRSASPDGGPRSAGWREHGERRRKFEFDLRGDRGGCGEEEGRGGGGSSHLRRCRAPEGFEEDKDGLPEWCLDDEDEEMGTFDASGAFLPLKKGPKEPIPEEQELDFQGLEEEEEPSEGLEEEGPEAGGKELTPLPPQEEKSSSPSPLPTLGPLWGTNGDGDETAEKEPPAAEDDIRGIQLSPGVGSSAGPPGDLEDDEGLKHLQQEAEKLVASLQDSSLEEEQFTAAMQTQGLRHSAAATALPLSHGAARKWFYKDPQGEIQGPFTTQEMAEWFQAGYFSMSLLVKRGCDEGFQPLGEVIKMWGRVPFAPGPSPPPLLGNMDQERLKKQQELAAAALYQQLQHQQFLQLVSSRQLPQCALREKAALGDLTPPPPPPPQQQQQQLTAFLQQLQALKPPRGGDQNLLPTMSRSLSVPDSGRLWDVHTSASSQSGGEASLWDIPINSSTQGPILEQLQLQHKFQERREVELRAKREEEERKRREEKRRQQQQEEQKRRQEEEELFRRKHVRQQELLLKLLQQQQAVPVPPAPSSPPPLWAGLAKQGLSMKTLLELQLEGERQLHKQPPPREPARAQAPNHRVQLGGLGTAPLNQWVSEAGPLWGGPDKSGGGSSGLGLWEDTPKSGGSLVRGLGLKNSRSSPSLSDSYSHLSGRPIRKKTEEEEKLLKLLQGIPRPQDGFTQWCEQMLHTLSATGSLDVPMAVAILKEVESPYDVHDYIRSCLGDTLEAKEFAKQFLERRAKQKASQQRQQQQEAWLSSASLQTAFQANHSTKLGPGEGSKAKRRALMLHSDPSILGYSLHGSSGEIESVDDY
# B3: Eukaryotic translation initiation factor 4E type 2 (Homo sapiens), O60573-1 (parent)
# chain: B2 chain
# B4: GRB10-interacting GYF protein 1 (Homo sapiens), O75420 (parent)
# chain: B2 partner
# B5: Eukaryotic translation initiation factor 4E type 2 (Homo sapiens), O60573-1 (parent)
# chain: B2 chain
# partner: B1 chain
# Variants of: B1
# Conditions: with EIF4E2, O60573-1
row,effect of a mutation on the interaction,Variant
1,disrupting interaction strength,Y41A;Y43A;M48A;L49A

# Variants of: B1
# Conditions: with EIF4E2, O60573-1
# Remark: another data set of the same source
row,effect of a mutation on the interaction,Variant
1,with no effect,E46A;E47F;Q89A

# Variants of: B1
# Conditions: with EIF4E2, O60573-1
# Remark: another data set of the same source
row,effect of a mutation on the interaction,Variant
1,with no effect,E46A;E47F;Q89A

# Variants of: B2
# Conditions: with ggyf1_human GIGYF1, O75420
row,effect of a mutation on the interaction,Variant
1,disrupting interaction strength,W95A
2,disrupting interaction strength,I85A;W95A;M101A
3,decreasing interaction strength,I85A;M101A

# Variants of: B2
# Conditions: with ggyf1_human GIGYF1, O75420
# Remark: another data set of the same source
row,effect of a mutation on the interaction,Variant
1,with no effect,W95A
2,with no effect,I85A;M101A

# Variants of: B2
# Conditions: with ggyf1_human GIGYF1, O75420
# Remark: another data set of the same source
row,effect of a mutation on the interaction,Variant
1,with no effect,Q159S;M161D;R202E

# Variants of: B3
# Conditions: with 4ebp1_human EIF4EBP1, Q13541
# 4ebp1_human EIF4EBP1, Q13541, sequence (Q13541 whole entry): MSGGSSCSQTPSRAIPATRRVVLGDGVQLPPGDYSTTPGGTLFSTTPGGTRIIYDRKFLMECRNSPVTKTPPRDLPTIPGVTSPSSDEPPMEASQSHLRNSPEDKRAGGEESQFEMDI
row,effect of a mutation on the interaction,Variant
1,disrupting interaction strength,W95A
2,disrupting interaction strength,I85A;M101A

# Variants of: B3
# Conditions: with 4ebp1_human EIF4EBP1, Q13541
# Remark: another data set of the same source
row,effect of a mutation on the interaction,Variant
1,increasing interaction strength,S99N

# Variants of: B4
# Conditions: with EIF4E2, O60573-1
row,effect of a mutation on the interaction,Variant
1,disrupting interaction strength,L60D;F65D;V68D;P76D;L77A
2,with no effect,L60D;F65A;V68D
3,disrupting interaction strength,L60D;F65D;V68D;E86A;N95F
4,with no effect,E86A;N95F

# Variants of: B4
# Conditions: with EIF4E2, O60573-1
# Remark: another data set of the same source
row,effect of a mutation on the interaction,Variant
1,with no effect,E44A;E45F;Q87A

# Variants of: B4
# Conditions: with EIF4E2, O60573-1
# Remark: another data set of the same source
row,effect of a mutation on the interaction,Variant
1,with no effect,E44F;E45A;Q87A

# Variants of: B4
# Conditions: with EIF4E2, O60573-1
# Remark: another data set of the same source
row,effect of a mutation on the interaction,Variant
1,disrupting interaction strength,Y39A;Y41A;M46A;L47A

# Variants of: B5
# Conditions: with GIGYF2, Q6Y7W6-1
row,effect of a mutation on the interaction,Variant
1,with no effect,I85A;M101A
2,with no effect,W95A

# Variants of: B5
# Conditions: with GIGYF2, Q6Y7W6-1
# Remark: another data set of the same source
row,effect of a mutation on the interaction,Variant
1,decreasing interaction strength,I85A;M101A
2,decreasing interaction strength,W95A

# Variants of: B5
# Conditions: with ggyf2_human GIGYF2, Q6Y7W6
row,effect of a mutation on the interaction,Variant
1,decreasing interaction strength,I85A;M101A
2,disrupting interaction strength,W95A
3,disrupting interaction strength,R103L;E149L

# Variants of: B5
# Conditions: with GIGYF2, Q6Y7W6-1
# Remark: another data set of the same source
row,effect of a mutation on the interaction,Variant
1,with no effect,Q159S;M161D;R202E
